Measured values as given in the Human Domainome abundance scans (Beltran et al. 2025).

B1: Death-inducer obliterator 1, residues 263 to 321; numbered along this chain, Q9BTC0 (parent)
chain: GYDPNALYCICRQPHNNRFMICCDRCEEWFHGDCVGISEARGRLLERNGEDYICPNCTI

Variants of: B1
Assay: abundance fitness (aPCA) (normalised: wild type 0, dead -1); higher = more abundant; growth selection in yeast, the domain comes from the species named
Details: Homo sapiens

Abundance fitness, by site and new letter:
R12: F -0.207 | A -0.14 | K 0.148 | W -0.284 | L -0.11 | E -0.04 | V -0.36 | C -0.216 | Y -0.296 | M -0.305 | D -0.101 | T -0.105 | P -0.463 | Q -0.186 | I -0.48 | G 0.184 | H 0.019
Y8: N 0.192 | F 0.035 | E 0.038 | L 0.048 | P 0.059 | H 0.03 | D 0.135 | R 0.115 | T 0.264 | I 0.165 | V 0.041 | K 0.115 | Q -0.019 | C 0.069 | S 0.125 | W -0.154 | M 0.07
M20: E -0.403 | C -0.209 | F -0.216 | A -0.343 | S 0.002 | I 0.045 | Q -0.077 | W -0.323 | V -0.077 | R -0.07 | D -0.559 | Y -0.304 | P -0.519 | T 0.053 | G -0.023 | L -0.037
C26: K -0.863 | H -0.672 | D -0.808 | G -0.72 | F -1.06 | A -0.411 | I -0.578 | E -0.632
C11: W -0.953 | F -0.724 | E -0.622 | L -0.861 | S -0.92 | Q -0.609 | T -0.747 | M -0.71 | D -0.381 | N -0.708 | I -0.785 | G -1.15 | P -0.999 | R -0.861
C9: G -0.535 | L -0.813 | F -0.659 | A -0.636 | Q -0.495 | M -0.606 | W -0.543 | S -0.859 | T -0.743 | V -0.552 | E -0.664 | N -1.01 | K -1 | R -0.534 | I -0.823 | P -0.877 | Y -0.763
P14: H -0.04 | M 0.004 | W -0.496 | V 0.07 | K 0.201 | L 0.022 | D -0.284 | S 0.035 | E 0.141 | A 0.006 | N -0.003 | F -0.084 | G 0.018 | Y 0.111 | I -0.028 | T 0.031 | Q 0.079
C22: P 0.02 | S 0.023 | I 0.07 | K 0.058 | M 0.102 | A 0.116 | R 0.11 | T 0.185 | F 0.137 | N 0.029 | E 0.023 | Y 0.12 | G 0.073 | V 0.269 | W 0.08 | Q 0.075 | H 0.056
I10: D -0.418 | S 0.018 | N 0.011 | A -0.084 | E -0.143 | H 0.105 | V -0.116 | W -0.169 | M 0.035 | K -0.064 | Y -0.449 | L -0.105 | G -0.217 | T 0.017 | Q -0.182
I21: H -0.4 | K -0.04 | M -0.104 | G -0.575 | L -0.051 | T -0.177 | Y 0.036 | W -0.582 | V 0.132 | R -0.156 | E -0.494 | A -0.144 | Q -0.164 | F -0.243 | D -0.692
F19: Y 0.058 | E -0.291 | A -0.182 | P 0.088 | H 0.062 | R -0.145 | S -0.143 | Q 0.048 | I -0.028 | N -0.341 | G -0.224 | K -0.166 | V -0.166 | W -0.016 | M -0.265 | L -0.016
C23: D -0.532 | P -0.296 | E -0.966 | W -0.942 | S -0.594 | K -0.408 | Y -1.17 | L -1.03 | H -1 | R -0.792 | Q -0.821 | M -1.26 | T -0.918 | V -1.08 | G -0.864
N16: F -0.184 | S -0.119 | Q 0.027 | T 0.058 | C -0.211 | L -0.064 | M 0.065 | H 0.108 | D -0.049 | W -0.072 | P -0.218 | G 0.152 | K -0.019 | V -0.045 | Y -0.399 | E 0.072 | I -0.109
H15: I -0.039 | D 0.073 | E 0.029 | C 0.018 | Q -0.148 | G 0.017 | N 0.051 | K -0.121 | V 0.076 | M 0.138 | S 0.164 | Y -0.025 | A -0.088 | L 0.058 | P -0.126 | W -0.037 | F -0.414
Q13: E 0.072 | R -0.085 | G -0.233 | I -0.111 | T 0.105 | K -0.054 | N -0.061 | Y -0.161 | P -0.692 | A 0.183 | M 0.149 | L -0.089 | D 0.02 | S -0.136 | H -0.159 | V -0.068 | F -0.159
D24: R 0.138 | P 0.082 | K 0.192 | M 0.073 | E 0.026 | S -0.092 | Y -0.073 | I -0.124 | T -0.032 | W -0.227 | G 0.166 | C 0.048 | L -0.176 | A 0.139 | V 0.258 | N 0.196
R18: M 0.139 | D -0.167 | K 0.009 | H 0.112 | I -0.215 | Y 0.011 | N -0.168 | Q 0.042 | W -0.16 | E -0.023 | P -0.34 | A -0.073 | V 0.03 | G 0.105 | S 0.104 | F -0.24 | C -0.047
A6: V -0.066 | Y -0.806 | T -0.07 | S -0.511 | P -0.471 | F -0.198 | M 0.102 | N 0.041 | G -0.306 | I -0.279 | Q -0.105 | W -0.569 | L -0.33 | R -0.419 | K -0.412
R25: H -0.032 | L -0.057 | P -0.052 | Q 0.124 | N 0.101 | S -0.019 | T 0.039 | G -0.085 | I -0.197 | W -0.261 | E 0.163 | K 0.118 | F -0.068 | V 0.063 | A 0.125 | C -0.191 | D -0.027 | M -0.023
L7: R 0.008 | T -0.006 | N 0.009 | F 0.042 | P -0.119 | W -0.055 | E 0.032 | H 0.119 | I 0.106 | Q 0.026 | Y 0.002 | M 0.1 | G 0.086 | K -0.012 | D -0.415 | C -0.062
N17: T -0.07 | K 0.023 | G 0.032 | I -0.142 | V -0.374 | F -0.182 | A -0.03 | S -0.111 | W -0.317 | Y -0.086 | M -0.043 | Q 0.181 | L -0.05 | D -0.148 | P -0.179 | C -0.117 | H 0.008
